Data reported in article doi:10.1101/2020.08.28.272104.

Molecular target: triple-helical collagen peptide Ac-(GPO)2-GPO-GPQ-GLA-GQR-GIV-GLO-GQR-GER-(GPO)3G-NH2
Test: ITC

Kd: 250 to 500 nM
stoichiometry N: 1
Substance: MMP-1(E200A), active-site mutant of matrix metalloproteinase 1 (enzyme)
